Laboratory results published in patent publication US20200345845A1 (RUBIUS THERAPEUTICS, published 2020).
Values belong to the molecule of their own block, whether it stands above or below them.

What was measured:
[1] = biological target: CD20 (human) (UniProt P11836); assay: flow cytometry, RCT binding to Z138 cells
[2] = biological target: CD20 (human) (UniProt P11836); assay: cell-based or functional assay
[3] = biological target: CD20 (human) (UniProt P11836); assay: flow cytometry, RCT binding to Toledo cells
[4] = biological target: CD20 (human) (UniProt P11836); assay: flow cytometry, RCT binding to Granta-519 cells
[5] = biological target: CD20 (human) (UniProt P11836); assay: flow cytometry, RCT binding to SU-DHL4 cells
[6] = biological target: PD-1 (UniProt Q15116); assay: cell-based or functional assay
[7] = biological target: T1, CD20 (human, UniProt P11836 1-297); assay: immunofluorescence of co-culture with Ramos cells
T1 construct: whole, on cells; Endogenous CD20 on lymphoma cell lines; also called CD20 on CD20-expressing cell lines (Raji, Ramos, Z138, Granta-519, Toledo, SU-DHL4, DOHH-2)
T1 sequence (looked up): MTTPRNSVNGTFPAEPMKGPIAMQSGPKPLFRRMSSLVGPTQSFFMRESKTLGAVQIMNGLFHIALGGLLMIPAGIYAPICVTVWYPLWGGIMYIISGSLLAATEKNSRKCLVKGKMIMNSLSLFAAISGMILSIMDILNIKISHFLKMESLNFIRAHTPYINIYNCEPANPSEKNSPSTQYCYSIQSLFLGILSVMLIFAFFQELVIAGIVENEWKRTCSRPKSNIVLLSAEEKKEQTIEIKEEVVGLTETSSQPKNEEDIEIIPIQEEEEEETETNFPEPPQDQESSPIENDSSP

PD-1, sequence (Q15116 25-288 limits assumed): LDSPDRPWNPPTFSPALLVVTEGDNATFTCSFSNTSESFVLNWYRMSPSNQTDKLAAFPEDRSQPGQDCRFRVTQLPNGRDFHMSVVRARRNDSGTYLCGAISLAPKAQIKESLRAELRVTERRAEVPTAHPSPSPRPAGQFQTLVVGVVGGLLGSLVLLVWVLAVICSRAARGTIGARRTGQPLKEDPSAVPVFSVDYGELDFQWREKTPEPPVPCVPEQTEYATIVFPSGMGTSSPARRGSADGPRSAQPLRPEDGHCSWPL

Percent cells bound [1]: 43.7% | apoptosis of Ramos cells after 48 hours of co-culture [2]: 32% | Percent cells bound [3]: 37.1% | Percent cells bound [4]: 76% | Percent cells bound [5]: 91.3%
Molecule: RCT-antiCD20: enucleated erythroid cells expressing on their surface a fusion protein of a rituximab CD20 scFv domain, an HA epitope tag and full-length GPA

interferon-gamma secretion of PBMC in an antigen recall assay [6]: 3 to 4 fold
Molecule: RCT-antiPD1: enucleated erythroid cells expressing a fusion protein of a pembrolizumab-based anti-PD-1 scFv domain, an epitope tag (HA or Flag) and full-length GPA

binding result [7]: no binding
B1: RCT-HA-GPA: control enucleated erythroid cells expressing on their surface the HA epitope tag fused to the N terminus of full-length GPA (other, not shown: small tags and cut ends)
chain: LSTTEVAMHTSTSSSVTKSYISSQTNDTHKRDTYAATPRAHEVSEISVRTVYPPEEETGERVQLAHHFSEPEITLIIFGVMAGVIGTILLISYGIRRLIKKSPSDVKPLPSPDTDVPLSSVEIENPETSDQ
notes: also called HA-GPA control RCT; control RCT-HA-GPA
